Data taken from article PMC7113836.

Target: HBcS-NadA-CFHbp (Hepatitis B Virus | Neisseria meningitidis strain MC58) (UniProt Q9JXV4)
Assay: cryo-EM structure; single particle cryoelectron microscopy of purified HBcS-NadA-CFHbp VLPs; 3.4 Å map; HBc T = 4 crystal structure fitted and refined; method details in Supplementary Materials

HBcS-NadA-CFHbp (from UniProt Q9JXV4 157-274)
stoichiometry N: 240 copies
